Reference: paper PMC8983717, “Cryo-EM structures of a LptDE transporter in complex with Pro-macrobodies offer insight into lipopolysaccharide translocation” (Nature Communications, 2022)

Assays:
[1] = target: the molecule itself; assay: cryo-EM structure; subset of 80,140 dimeric particles of the NgLptDE-PMb51-PMb21 sample; map at 5.27 Å; pseudo-2-fold symmetry
[2] = target: T1, N. gonorrhoeae LptD (1-801)-3C-His10 and LptE (1-159)-AVI complex, biotinylated (Neisseria gonorrhoeae ATCC 700825 / FA …, UniProt Q5F651;Q5F9V6, biotin on the AVI tag (in vitro, BirA)); assay: grating-coupled interferometry (GCI); biotinylated NgLptDE immobilised on a 4PCP-S (streptavidin) chip at 600-700 pg/mm2; 20 °C; Tris 25 mM pH 7.5, NaCl 300 mM, DDM 0.1%; 8 concentrations (2-fold dilutions) in duplicate; 1:1 model; conditions: both partners purified
T1 construct: signal peptide in the construct; LptD of N. gonorrhoeae (Zopf) Trevisan (ATCC 700825), residues 1-801; LptE of N. gonorrhoeae (Zopf) Trevisan (ATCC 700825), residues 1-159; Used for sybody generation and GCI; also called biotinylated NgLptDE; Biotinylated protein; source: E. coli SF100, purified as the NgLptDE complex, biotinylated in vitro with BirA, second SEC; monomeric peak; not shown: AVI, …

B1: Neisseria gonorrhoeae LptDE complex (NgLptDE), wild-type full-length LptD and LptE with a C-terminal hexa-histidine tag (complex, N. gonorrhoeae)
chain 1: ADTVAAEEADGRVAEGGAQGASESAQASDLTLGSTCLFCSNESGSPERTEAAVQGSGEASVPEDYTRIVADRMEGQSKVKVRAEGSVIIERDGAVLNTDWADYDQSGDTVTVGDRFALQQDGTLIRGETLTYNLDQQTGEAHNVRMETEQGGRRLQSVSRTAEMLGEGRYKLTETQFNTCSAGDAGWYVKAASVEADRGKGIGVAKHAAFVFGGVPLFYTPWADFPLDGNRKSGLLVPSVSAGSDGVSLSVPYYFNLAPNFDATFAPGIIGERGATFDGQIRYLRPDYSGQTDLTWLPHDKKSGRNNRYQAKWQHRHDISDTLQAGVDFNQVSDSGYYRDFYGGEEIAGNVNLNRRVWLDYGGRAAGGSLNAGLSVQKYQTLANQSGYKDEPYAIMPRLSADWHKNAGRAQIGVSAQFTRFSHDGRQDGSRLVVYPGIKWDFSNSWGYVRPKLGLHATYYSLDSFGGKASRSVGRVLPVVNIDGGTTFERNTRLFGGGVVQTIEPRLFYNYIPAKSQNDLPNFDSSESSFGYGQLFRENLYYGNDRINAANSLSTAVQSRILDGATGEERFRAGIGQKFYFKDDAVMLDGSVGKNPRSRSDWVAFASGGIGGRFTLDSSIHYNQNDKRAEHYAVGAGYRPAPGKVLNARYKYGRNEKIYLQADGSYFYDKLSQLDLSAQWPLTRNLSAVVRYNYGFEAKKPIEMLAGAEYKSSCGCWGAGVYAQRYVTGENTYKNAVFFSLQLKDLSSVGRNPAGRMDVAVPGYIPAHSLSAGRNKRP
chain 2: CGFHLKGADGISPPLTYRSWHIEGGQALQFPLETALYQASGRVDDAAGAQMTLRIDSVSQNKETYTVTRAAVINEYLLILTVEAQVLKRGEPVGKPMTVSVRRILDYADNEILGKQEEEETLWAEMRQDVAEQIVRRLTFLKAE
notes: LptD of N. gonorrhoeae, wild-type full length, UniProt Q5F651; LptE of N. gonorrhoeae, UniProt Q5F9V6; it is put on LptE here; Monomeric and dimeric SEC peaks were kept apart; the monomer was used for the complexes with PMbs; also called LptDE transporter; source: E. coli SF100, pBAD22A, purified from the outer-membrane fraction (LDAO, NiNTA, exchange to LMNG, SEC); also on E. coli SF100 cells …
stoichiometry N [1]: 2

B2: N. gonorrhoeae LptD (NgLptD), as the chain of the purified NgLptDE complex (natural protein, UniProt Q5F651 24-801, looked up)
chain: ADTVAAEEADGRVAEGGAQGASESAQASDLTLGSTCLFCSNESGSPERTEAAVQGSGEASVPEDYTRIVADRMEGQSKVKVRAEGSVIIERDGAVLNTDWADYDQSGDTVTVGDRFALQQDGTLIRGETLTYNLDQQTGEAHNVRMETEQGGRRLQSVSRTAEMLGEGRYKLTETQFNTCSAGDAGWYVKAASVEADRGKGIGVAKHAAFVFGGVPLFYTPWADFPLDGNRKSGLLVPSVSAGSDGVSLSVPYYFNLAPNFDATFAPGIIGERGATFDGQIRYLRPDYSGQTDLTWLPHDKKSGRNNRYQAKWQHRHDISDTLQAGVDFNQVSDSGYYRDFYGGEEIAGNVNLNRRVWLDYGGRAAGGSLNAGLSVQKYQTLANQSGYKDEPYAIMPRLSADWHKNAGRAQIGVSAQFTRFSHDGRQDGSRLVVYPGIKWDFSNSWGYVRPKLGLHATYYSLDSFGGKASRSVGRVLPVVNIDGGTTFERNTRLFGGGVVQTIEPRLFYNYIPAKSQNDLPNFDSSESSFGYGQLFRENLYYGNDRINAANSLSTAVQSRILDGATGEERFRAGIGQKFYFKDDAVMLDGSVGKNPRSRSDWVAFASGGIGGRFTLDSSIHYNQNDKRAEHYAVGAGYRPAPGKVLNARYKYGRNEKIYLQADGSYFYDKLSQLDLSAQWPLTRNLSAVVRYNYGFEAKKPIEMLAGAEYKSSCGCWGAGVYAQRYVTGENTYKNAVFFSLQLKDLSSVGRNPAGRMDVAVPGYIPAHSLSAGRNKRP
notes: LptD of N. gonorrhoeae, wild-type full length, UniProt Q5F651; The LptD chain of m1; source: E. coli SF100, co-expressed with LptE, purified as the NgLptDE complex (NiNTA, SEC, LMNG)
binding result [1]: binds

B3: sybody 51 (Sb51), synthetic nanobody against NgLptDE (VHH)
VHH: QVQLVESGGGSVQAGGSLRLSCAASGSISSITYLGWFRQAPGKEREGVAALATYYGHTYYADSVKGRFTVSLDNAKNTVYLQMNSLKPEDTALYYCAAAYSGIWTPLGVWATYEYWGQGTQVTV
notes: as the sybody moiety of m6 (PMb51), PDB 7OMM, up to the conserved C-terminus VTV
binding result [2]: binds
